Key:
[1] = target: human recombinant CD64 (Fc gamma receptor I), R&D Systems (human) (UniProt P12314); assay: SPR (Biacore T200), construct captured on Protein A, soluble CD64 as analyte
[2] = target: FcγRIIIaV158 (on cells bearing the labeled receptor, TR-FRET) (UniProt P08637); assay: TR-FRET competition (CisBio) on cells bearing the labeled receptor; competitor: labeled antibody
[3] = target: FcγRIIaH131 (cell surface CD32a, cells bearing the labeled receptor, TR-FRET) (UniProt P12318); assay: as above
[4] = target: FcγRIIb (on cells bearing the labeled receptor, TR-FRET) (UniProt P31994); assay: as above
Chain of FcγRIIb (on cells bearing the labeled receptor, TR-FRET) (P31994 43-310 limits assumed): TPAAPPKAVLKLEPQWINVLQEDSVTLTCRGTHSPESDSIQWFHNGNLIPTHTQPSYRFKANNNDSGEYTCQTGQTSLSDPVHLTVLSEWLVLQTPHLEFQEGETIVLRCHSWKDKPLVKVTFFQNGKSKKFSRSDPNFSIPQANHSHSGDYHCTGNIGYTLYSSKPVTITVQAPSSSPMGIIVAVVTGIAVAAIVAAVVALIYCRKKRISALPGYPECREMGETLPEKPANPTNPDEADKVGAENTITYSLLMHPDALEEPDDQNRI

Chain of FcγRIIaH131 (cell surface CD32a, cells bearing the labeled receptor, TR-FRET) (P12318 34-317): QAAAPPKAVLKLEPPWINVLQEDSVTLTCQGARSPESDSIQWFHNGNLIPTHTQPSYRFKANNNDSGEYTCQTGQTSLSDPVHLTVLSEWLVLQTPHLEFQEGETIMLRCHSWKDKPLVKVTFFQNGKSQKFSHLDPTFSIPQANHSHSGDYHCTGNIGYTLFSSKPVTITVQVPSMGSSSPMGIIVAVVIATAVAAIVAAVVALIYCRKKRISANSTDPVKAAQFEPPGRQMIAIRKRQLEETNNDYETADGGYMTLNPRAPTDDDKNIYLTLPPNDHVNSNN
Chain of FcγRIIIaV158 (on cells bearing the labeled receptor, TR-FRET) (P08637 17-254 F176V): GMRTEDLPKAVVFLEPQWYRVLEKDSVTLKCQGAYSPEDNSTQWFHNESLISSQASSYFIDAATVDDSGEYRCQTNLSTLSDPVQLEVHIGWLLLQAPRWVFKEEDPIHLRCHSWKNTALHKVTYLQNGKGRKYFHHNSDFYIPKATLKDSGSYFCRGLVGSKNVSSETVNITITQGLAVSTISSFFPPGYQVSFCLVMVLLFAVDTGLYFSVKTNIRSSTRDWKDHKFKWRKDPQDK
Chain of human recombinant CD64 (Fc gamma receptor I), R&D Systems (human) (P12314 16-288 limits assumed): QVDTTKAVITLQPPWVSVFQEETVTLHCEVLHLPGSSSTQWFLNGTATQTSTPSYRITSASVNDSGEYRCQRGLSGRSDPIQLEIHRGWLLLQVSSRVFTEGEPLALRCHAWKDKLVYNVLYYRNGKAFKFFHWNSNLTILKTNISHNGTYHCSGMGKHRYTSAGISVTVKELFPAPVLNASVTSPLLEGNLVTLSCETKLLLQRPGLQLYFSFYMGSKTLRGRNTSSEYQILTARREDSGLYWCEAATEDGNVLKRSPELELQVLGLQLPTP

- CD64 Valency by SPR [1]: 1.5
- IC50 [2]: 428 nM
- IC50 [3]: 1270 nM
- IC50 [4]: 3290 nM
Substance: anti-CD20 mAb (CDRs from Gazyva (obinutuzumab)) (antibody)

Reference: US20210269546A1
